Measured values from US20220249679A1 (MITSUBISHI TANABE PHARMA, published 2022).
Positions count from the first letter of the chain named. Values joined by “and” are separate entries in the source; they are usually repeats but may differ in a detail not shown here. Equal values may be shown once.

T1: Human CD138 His (human, UniProt P18827 23-254)
T1 construct: also called hCD138
T1 sequence: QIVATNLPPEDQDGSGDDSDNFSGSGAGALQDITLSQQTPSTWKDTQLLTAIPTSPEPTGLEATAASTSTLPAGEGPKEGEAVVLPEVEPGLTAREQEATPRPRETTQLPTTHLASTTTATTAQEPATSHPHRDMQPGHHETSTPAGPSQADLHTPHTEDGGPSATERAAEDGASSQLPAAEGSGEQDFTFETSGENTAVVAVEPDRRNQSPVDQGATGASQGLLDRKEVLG

T2: Mouse CD138 (ELISA binding assay, data not shown) (mouse, UniProt P18828 23-255, limits assumed)
T2 construct: Construct used in the ELISA is not described
T2 sequence: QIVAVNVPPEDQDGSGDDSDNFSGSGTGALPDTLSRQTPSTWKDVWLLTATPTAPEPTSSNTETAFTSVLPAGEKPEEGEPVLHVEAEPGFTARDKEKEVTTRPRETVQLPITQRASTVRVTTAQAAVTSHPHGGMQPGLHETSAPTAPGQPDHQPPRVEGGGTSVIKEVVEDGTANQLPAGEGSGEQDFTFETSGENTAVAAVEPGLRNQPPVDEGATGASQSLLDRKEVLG

T3: Human CD138-Fc protein (human, UniProt P18827 23-254)
T3 construct: also called hCD138-Fc
T3 sequence: T1 sequence

T4: hCD138 peptide AGEGPKEGEAVVLP (human)
T4 construct: Portion of the linear CD138 peptide used for immunization; also the peptide in the crystal structure; also called syndecan-1 peptide
T4 peptide: AGEGPKEGEAVVLP

T5: Human syndecan-1 (CD138) on the cell surface (human, UniProt P18827 23-310)
T5 construct: Endogenous on H929, KMS-11 and RT112/84 cells or transfected into Expi293 cells; also called human CD138; hCD138
T5 sequence: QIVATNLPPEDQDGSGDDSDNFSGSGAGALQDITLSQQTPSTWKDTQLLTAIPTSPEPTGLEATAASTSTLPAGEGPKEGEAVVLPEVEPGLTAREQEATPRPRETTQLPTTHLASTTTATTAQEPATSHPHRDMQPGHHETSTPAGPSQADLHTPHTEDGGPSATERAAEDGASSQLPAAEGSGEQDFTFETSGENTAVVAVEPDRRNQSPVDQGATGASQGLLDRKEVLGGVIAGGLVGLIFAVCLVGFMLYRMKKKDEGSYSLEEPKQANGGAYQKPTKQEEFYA

T6: hCD138 (ELISA of Table 29) (human, UniProt P18827 23-254, limits assumed)
T6 construct: also called human CD138
T6 sequence: T1 sequence

T7: Mouse CD138 His (mouse, UniProt P18828 23-255)
T7 construct: also called mCD138
T7 sequence: T2 sequence

B1: F13P30A7 (antibody, V domains shown)
VH: EVQLVESGGGLVQPKGSLKLSCAASGFTFNTYAMNWVRQAPGKGLEWIARIRSKSNNYATYYADSVKDRFTISRDDSQSLLYLQMNNLKTEDTAIFYCVTDYGYVYFDAWGAGTTVTVSS
VL: NIIMTQSPKSMAMSVGERVTLSCKASENVGNYVSWYQQKPEQSPKLLIYGASYRYTGVPDRFTGSGSGTDFTLTISSVQAEDLADYHCGQSSRYPLTFGAGTKLELKR
notes: Murine IgG purified from hybridoma supernatant
B2: F13P14D3 (antibody, V domains shown)
VH: B1 VH with A24T, I48V, A63V, L80T, L81V, Y82H, F96Y, Y104H, A109V
VL: B1 VL with I3V, A12S, E17Q, N31S, Y53N, Y55N, G68A, A100G
notes: as for B1
B3: F13P18D8 (antibody, V domains shown)
VH: B1 VH with V5L, K15E, T28A, I48L, S79G, L80M, I95M, F96Y, G103Y, A109V
VL: B1 VL with I3V, A12S, N31T, P40S, E41D, Y53N, G68A, S76T, A80S
notes: as for B1
B4: F6 ckf-rep (antibody, V domains shown)
VH: QVQLVQSGAEVVKPGASVKLSCKASGYTFTSYYLYWVKKAPGQGLDWIGEIYPRSGGTNINEKFLSRVTLTADTSTSTAYLELSSLTSEDTAVYYCTRSLLYWGQGTTLTVSS
VL: DVVMTQSPLSLSVTLGQPASISCKSSQSLLASDGKTYLNWLQQRPGQSPRRLIYLVSKLDSGVPNRFSGSGSGTDFTLQISRVEAEDVGLYYCWQGAHFPFTFGSGTKLEIKR
notes: Humanized F12P16F6 expressed as whole antibody with human constant regions (kappa light chain)
B5: F6 cks-rep (hF6) (antibody, human IgG1, kappa, V domains shown)
VH: B4 VH
VL: B4 VL with S7T, L15P, Q42L, R50K
notes: Humanized IgG1/kappa antibody; also called hF6 (no Fynomer)
B6: F6 f1kf-rep (antibody, V domains shown)
VH: B4 VH with V5Q, L81M, E82D
VL: B4 VL
notes: as for B4
B7: F6 cka-rep (antibody, V domains shown)
VH: B4 VH
VL: B4 VL with S7T, L15P, Q42L, R50K, W94M, S105G, L109V
notes: as for B4
B8: F6 aks-rep (antibody, V domains shown)
VH: B4 VH with I60Y, N61A, L65Q, S66G
VL: B4 VL with S7T, L15P, Q42L, R50K
notes: as for B4
B9: F6 f1ka-rep (antibody, V domains shown)
VH: B4 VH with V5Q, L81M, E82D
VL: B4 VL with S7T, L15P, Q42L, R50K, W94M, S105G, L109V
notes: as for B4
B10: F6 f2kf-rep (antibody, V domains shown)
VH: B4 VH with V5Q, L70I, T74E, A79V, L81M, E82Q, T91S
VL: B4 VL
notes: as for B4
B11: F6 akf-rep (antibody, V domains shown)
VH: B4 VH with I60Y, N61A, L65Q, S66G
VL: B4 VL
notes: as for B4
B12: F6 f1ks-rep (antibody, V domains shown)
VH: B4 VH with V5Q, L81M, E82D
VL: B4 VL with S7T, L15P, Q42L, R50K
notes: as for B4
B13: F11AP11E5 (antibody, V domains shown)
VH: QVQLQQSGAELVKPGASVKLSCKASGYTFTNYYMYWVKQRPGQGLEWIGEINPGNGGTNFNEKFKNKATLTVDKSSSTAYMQLSSLTSEDSAVYYCTTRFAYWGQGTLVIVSA
VL: DVVMTQTPLSLSVTIGQPASISCKSGQSLLYSNGKTYLTWLQQRPGQAPKLLMYQVSKLDPGIPDRFSGSGSETDFTLKISRVEAEDLGVYYCLQNTYYPHTFGAGTKLELKR
notes: as for B1
B14: F12P7G11 (antibody, V domains shown)
VH: QVQLQQSGAELARPGASVKLSCKASGYTFSSHWMQWVKQRPGQGLEWIGAIYPGDGDTRFTQKFKGKATLTADKSSNTAYMQLSSLASEDSAVYYCARGIYYDRSRAMDYWGQGTSVTVSS
VL: QIVLSQSPAILSASPGEKVTMTCRASSSVNYMHWYQQKPGSSPKHWIYATSYLASGVPARFSGSGSGTSYSLTISRVEAEDAATYYCQQWSSDPLTFGAGTKLELKR
notes: as for B1
B15: hF6-HC-G7 (bispecific antibody, human IgG1, kappa)
heavy: not shown
light: DVVMTQTPLSLSVTPGQPASISCKSSQSLLASDGKTYLNWLLQRPGQSPKRLIYLVSKLDSGVPNRFSGSGSGTDFTLQISRVEAEDVGLYYCWQGAHFPFTFGSGTKLEIKRTVAAPSVFIFPPSDEQLKSGTASVVCLLNNFYPREAKVQWKVDNALQSGNSQESVTEQDSKDSTYSLSSTLTLSKADYEKHKVYACEVTHQGLSSPVTKSFNRGEC
notes: IgG1/kappa

Columns and labels:
[1] = biological target: T1, Human CD138 His; assay: SPR, summary table
Experimental: (§1) Murine IgGs were purified from the hybridoma supernatants and the IgGs were subject to SPR (surface plasmon resonance) for kinetic binding measurements. Human or mouse CD138 His was immobilized on a GLM chip at […] on a BioRad Proteon. […] KDs were measured using bivalent analyte fit.

[2] = biological target: T1, Human CD138 His; assay: SPR (BioRad Proteon), CD138 His immobilized, bivalent analyte fit
Experimental: as §1

[3] = biological target: T2, Mouse CD138 (ELISA binding assay, data …); assay: ELISA binding assay
[4] = biological target: T3, Human CD138-Fc protein; assay: summary table; repeats the EC50 (nM) of Table 21, unit not given
Experimental: (§2) A CD138 binding ELISA was performed with 9 representative humanized antibodies to determine binding to portion of the linear CD138 peptide used for immunization (FIG. 7). […] Coated plates were incubated with various dilutions of each of the 9 representative antibodies overnight and binding was detected with a goat anti-human IgG (H+L)-HRP. EC50s were determined using four parameter fit curves (Table 21). An ELISA was also performed to detect binding to plate-coated human CD138-Fc protein (Table 21).

[5] = biological target: T4, hCD138 peptide AGEGPKEGEAVVLP; assay: ELISA, plate-coated hCD138 peptide
Experimental: as §2

[6] = biological target: T5, Human syndecan-1 (CD138) on the cell …; assay: FACS on RT-112 cells, four parameter fit
Experimental: (§3) Analysis of cell-surface binding to human CD138 was performed on 9 representative humanized anti-CD138 antibodies by FACS (FIG. 7). […] Two cell lines expressing moderate levels of CD138 were used to test binding; multiple myeloma cell line KMS-11 and bladder cancer line RT112/84. […] EC50s were calculated using four parameter fit curves (Table 20). The constructs were also tested against ARH-77 cells, which are CD138 negative lymphoblasts.

[7] = biological target: T5, Human syndecan-1 (CD138) on the cell …; assay: FACS on KMS-11 cells, four parameter fit
Experimental: as §3

[8] = biological target: T5, Human syndecan-1 (CD138) on the cell …; assay: summary table; repeats the EC50 (nM) of Table 20, unit not given
Experimental: as §3

[9] = biological target: T3, Human CD138-Fc protein; assay: ELISA, plate-coated human CD138-Fc
Experimental: as §2

[10] = biological target: T6, hCD138 (ELISA of Table 29); assay: hCD138 ELISA
[11] = biological target: T7, Mouse CD138 His; assay: SPR, mouse CD138 His immobilized
Experimental: as §1

Binder | Kd [1] | Kd [2] | koff [2] | kon [2] | binding result [3] | ELISA CD138 Fc binding [4] | EC50 [5] | EC50 [6] | EC50 [7] | FACS binding (KMS11) [8] | EC50 [9] | EC50 [10] | binding result [11]
B1 | 5 nM | 5.32 nM and 5.3 nM | 0.00127 s⁻¹ | 238000 M⁻¹ s⁻¹ | no binding |  |  |  |  |  |  |  | 
B2 | 10 nM | 9.67 nM and 9.7 nM | 0.00104 s⁻¹ | 107000 M⁻¹ s⁻¹ | no binding |  |  |  |  |  |  |  | 
B3 | 2 nM | 1.88 nM and 1.9 nM | 0.000523 s⁻¹ | 278000 M⁻¹ s⁻¹ | no binding |  |  |  |  |  |  |  | 
B4 |  |  |  |  |  | 0.535 | 0.981 nM | 2.09 nM | 1.64 nM | 1.64 | 0.535 nM |  | 
B5 |  |  |  |  |  | 0.197 | 0.33 nM | 2.2 nM | 1.2 nM | 1.2 | 0.197 nM | 0.56 nM | 
B6 |  |  |  |  |  | 0.225 | 0.413 nM | 1.93 nM | 0.94 nM | 0.94 | 0.225 nM |  | 
B7 |  |  |  |  |  | 0.855 | 1.65 nM | 2.44 nM | 1.3 nM | 1.3 | 0.855 nM |  | 
B8 |  |  |  |  |  | 0.969 | 1.28 nM | 2.13 nM | 1.36 nM | 1.36 | 0.969 nM |  | 
B9 |  |  |  |  |  | 0.433 | 0.744 nM | 1.39 nM | 0.83 nM | 0.83 | 0.433 nM |  | 
B10 |  |  |  |  |  | 0.405 | 0.726 nM | 2.46 nM | 1.81 nM | 1.81 | 0.405 nM |  | 
B11 |  |  |  |  |  | 0.879 | 1.54 nM | 1.88 nM | 1.09 nM | 1.09 | 0.879 nM |  | 
B12 |  |  |  |  |  | 0.762 | 1.31 nM | 2.73 nM | 0.97 nM | 0.97 | 0.762 nM |  | 
B13 | 92 nM | 91.6 nM | 0.0117 s⁻¹ | 128000 M⁻¹ s⁻¹ |  |  |  |  |  |  |  |  | no binding (tested: 167 nM)
B14 | 9 nM | 8.66 nM and 8.6 nM | 0.033 s⁻¹ | 3.81e+06 M⁻¹ s⁻¹ |  |  |  |  |  |  |  |  | no binding (tested: 167 nM)
B15 |  |  |  |  |  |  |  |  |  |  |  | 0.55 nM | 
